B1: TMEM175 (parent)
chain: ALLHQAETLQPSVWFGGREHVLMF

Variants of: B1
Test: protein stability index of a GFP-peptide fusion (GPS, HEK-293T) (PSI 1-6); higher = more stable
Settings: c terminus: a fixed tail appended
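Further: lentivirally expressed fusions sorted by FACS into six bins by GFP to DsRed ratio, PSI derived from sequencing read proportions per bin multiplied by bin number.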

| Variant | protein stability index |
| --- | --- |
| TLLHQAETLQPSVWFGGREHVLMF [A1T] | 2.38 |
| ALLHQAETLQPSVWFSGREHVLMF [G16S] | 2.06 |
| ALLHQAETLQPSVWFGGSEHVLMF [R18S] | 1.15 |
| ALLHQAETLQPSVWFGGREHVLNF [M23N] | 1.58 |
| ALLHQAETLQPSVWFGGREHHLMF [V21H] | 2.89 |
| ALLHQAETLQPSVWFGGDEHVLMF [R18D] | 1.93 |
| ALLHQAETLQPSVDFGGREHVLMF [W14D] | 1.74 |
| ALLHQAETLQPSVWFGKREHVLMF [G17K] | 1.66 |
| ALLHQAERLQPSVWFGGREHVLMF [T8R] | 1.26 |
| ALLHQAETLQPSVWNGGREHVLMF [F15N] | 1.65 |
| ALLHQAETLQKSVWFGGREHVLMF [P11K] | 2.59 |
| KLLHQAETLQPSVWFGGREHVLMF [A1K] | 2.35 |
| ADLHQAETLQPSVWFGGREHVLMF [L2D] | 2.01 |
| ALLHQAETLQPSVWFGGMEHVLMF [R18M] | 2.03 |
| ALLHQAETLQPSVWFGGREHVVMF [L22V] | 3.06 |
| ALLHQAETLQHSVWFGGREHVLMF [P11H] | 1.77 |
| ALLHQAETLQPSVWFGGREHGLMF [V21G] | 2.89 |
| ALLHQAETLQPSVWAGGREHVLMF [F15A] | 1.88 |
| ALLHQAETLQPSVWFGGREHVLPF [M23P] | 1.35 |
| ALLHQAETLQPSVWFGGREHVLVF [M23V] | 1.27 |
| ALLHQAETLQPIVWFGGREHVLMF [S12I] | 3.85 |
| ALLHQAETLQPSVWQGGREHVLMF [F15Q] | 1.27 |
| ALLHQANTLQPSVWFGGREHVLMF [E7N] | 1.88 |
| ALLHQAETLPPSVWFGGREHVLMF [Q10P] | 2.16 |

| Variant | protein stability index |
| --- | --- |
| ALGHQAETLQPSVWFGGREHVLMF [L3G] | 2.83 |
| ALLHQAETLQPSVWFGGREHVLHF [M23H] | 2.39 |
| ALLHQAETLQPSVWFGGREHVGMF [L22G] | 1.77 |
| ALLHNAETLQPSVWFGGREHVLMF [Q5N] | 2.68 |
| ALLHQAETLQPSVWFGGRPHVLMF [E19P] | 2.37 |
| ALLHQPETLQPSVWFGGREHVLMF [A6P] | 2.43 |
| ALLHQAETLQPSVWFGGRWHVLMF [E19W] | 2.92 |
| ALKHQAETLQPSVWFGGREHVLMF [L3K] | 1.71 |
| ALLHQAETLQPSVWFGGREHVHMF [L22H] | 2.68 |
| ALLHQAETLQPWVWFGGREHVLMF [S12W] | 2.82 |
| ALLHQAETNQPSVWFGGREHVLMF [L9N] | 1.97 |
| ALLHQAETLQPSVWFGGREHVLFF [M23F] | 1.67 |
| ALLHQAETLQPSVHFGGREHVLMF [W14H] | 2.31 |
| ALLFQAETLQPSVWFGGREHVLMF [H4F] | 3.14 |
| ALLHQAETLQGSVWFGGREHVLMF [P11G] | 1.24 |
| ALLHQAETLQPSLWFGGREHVLMF [V13L] | 2.59 |
| ALLHQAETLQPSVWFGGREHVLKF [M23K] | 1.74 |
| ALLHQAETLDPSVWFGGREHVLMF [Q10D] | 2.35 |
| ALLHQAETLQPSVWFGPREHVLMF [G17P] | 1.05 |
| ALLHQAETLQPSVWFGGREHVNMF [L22N] | 2.19 |
| GLLHQAETLQPSVWFGGREHVLMF [A1G] | 2.95 |
| ALLHQAETLQPSVWFGGREHVLMQ [F24Q] | 2.4 |
| ALLHCAETLQPSVWFGGREHVLMF [Q5C] | 1.99 |
| ALLHQAETLQPSVWFGGREHVLME [F24E] | 2.15 |

| Variant | protein stability index |
| --- | --- |
| ALLHQAETLQPSVWFGGREPVLMF [H20P] | 3.07 |
| AMLHQAETLQPSVWFGGREHVLMF [L2M] | 1.93 |
| ALLHQAGTLQPSVWFGGREHVLMF [E7G] | 3.88 |
| ALLHQAETLQPSVWFGGREHRLMF [V21R] | 2.18 |
| ALLHLAETLQPSVWFGGREHVLMF [Q5L] | 3.8 |
| ALLHQAETLQPQVWFGGREHVLMF [S12Q] | 1.82 |
| ALLHQAETLQPSVWFGGRESVLMF [H20S] | 2.21 |
| ALLHQAWTLQPSVWFGGREHVLMF [E7W] | 3.4 |
| ALLHQAETLQDSVWFGGREHVLMF [P11D] | 2.79 |
| ALLHQTETLQPSVWFGGREHVLMF [A6T] | 1.83 |
| ALLHQAETLQPSVWFGGAEHVLMF [R18A] | 2.59 |
| ALLHQAETLQPSVWFGGRYHVLMF [E19Y] | 1.81 |
| ALLHQAMTLQPSVWFGGREHVLMF [E7M] | 3.19 |
| ALLHQAETLQPSVWFGGREHVLQF [M23Q] | 1.84 |
| ALLHQAETLQPSVWFGGREHDLMF [V21D] | 1.77 |
| ALLHQAETLRPSVWFGGREHVLMF [Q10R] | 2.36 |
| ALLHQAETQQPSVWFGGREHVLMF [L9Q] | 3.27 |
| ALLHQAETLQPSVWFGGREHVLML [F24L] | 2.21 |
| ALLHQAETRQPSVWFGGREHVLMF [L9R] | 2.19 |
| FLLHQAETLQPSVWFGGREHVLMF [A1F] | 2.59 |
| ALLHQAETLQPSVWFGGRNHVLMF [E19N] | 1.42 |
| ALLHTAETLQPSVWFGGREHVLMF [Q5T] | 2.94 |
| ALLHQAETPQPSVWFGGREHVLMF [L9P] | 2.11 |
| ALLHQAETLQPVVWFGGREHVLMF [S12V] | 3.21 |

| Variant | protein stability index |
| --- | --- |
| ALLHQAETLIPSVWFGGREHVLMF [Q10I] | 2.49 |
| ALLHQAETLQPPVWFGGREHVLMF [S12P] | 4.3 |
| AILHQAETLQPSVWFGGREHVLMF [L2I] | 3.26 |
| ALLHQAETLSPSVWFGGREHVLMF [Q10S] | 2.2 |
| ALLNQAETLQPSVWFGGREHVLMF [H4N] | 2.84 |
| ALCHQAETLQPSVWFGGREHVLMF [L3C] | 2.26 |
| ALLHQAETLQPSVWFGGREHALMF [V21A] | 1.42 |
| ALLHQAETLQPSVWFGGREHVQMF [L22Q] | 1.9 |
| ALLHPAETLQPSVWFGGREHVLMF [Q5P] | 2.78 |
| ALLHQAEHLQPSVWFGGREHVLMF [T8H] | 2.95 |
| PLLHQAETLQPSVWFGGREHVLMF [A1P] | 1.69 |
| ALLHQAETLQPSVWFGGPEHVLMF [R18P] | 1.71 |
| ALLHQAETLQPSVWFGGRLHVLMF [E19L] | 2.74 |
| ALLHQAETLQPSVWSGGREHVLMF [F15S] | 1.57 |
| ALLHQAENLQPSVWFGGREHVLMF [T8N] | 1.63 |
| ALLHQAETLQPSVWFGGFEHVLMF [R18F] | 2.29 |
| ALLEQAETLQPSVWFGGREHVLMF [H4E] | 1.56 |
| ALLHQAETLQPSVWFGGREHVRMF [L22R] | 1.93 |
| ALLHQAETLQPSVWFGGREHVLMG [F24G] | 1.47 |
| ALLHQAEWLQPSVWFGGREHVLMF [T8W] | 1.69 |
| ALLAQAETLQPSVWFGGREHVLMF [H4A] | 1.9 |
| ALLHQAETLQPSVWFGGREHVCMF [L22C] | 3.13 |

Reference: the supplement of paper PMC10567573
